Our source for the stoichiometry N values is PMC5016229.

The assay concerns the target RSV F DS-Cav1 (human respiratory syncytial virus | bacteriophage T4) (UniProt P03420). Put plainly: SEC.

The substance “RSV F DS-Cav1 (from UniProt P03420 26-109; P03420 137-513) (domain or fragment)” came in with a stoichiometry N of 3.

As usually defined, the stoichiometry N is a count of units in the complex or per binding partner.
